Legend:
N protein full-length [1] = target: T1, N protein full-length (SARS-CoV-2 (Wuhan-Hu-1), UniProt P0DTC9 1-419); test: BLI; immobilized DNA, avidity; 10 mM Tris-HCl pH 7.4, 150 mM NaCl, 1 mM MgCl2; FA with 0.1 mg/ml BSA at 25 C; BLI with 0.05% Tween-20; SEC at ambient temperature; details: protein: recombinant, tags: 6xHis-thioredoxin removed by HRV 3C, chain copies: 2, hairpin
N-NTD [2] = target: T2, N-NTD (SARS-CoV-2 (Wuhan-Hu-1), UniProt P0DTC9 46-174); test: fluorescence anisotropy; 1 mM Mg2+; 10 mM Tris-HCl pH 7.4, 150 mM NaCl, 1 mM MgCl2; […]; BLI with 0.05% Tween-20; […]
N protein full-length [3] = target: T1, N protein full-length; test: fluorescence anisotropy; Hill slope 2.3; 10 mM Tris-HCl pH 7.4, 150 mM NaCl, 1 mM MgCl2; FA with 0.1 mg/ml BSA at 25 C; BLI with 0.05% Tween-20; SEC at ambient temperature; details: protein: recombinant; tags: 6xHis-thioredoxin removed by HRV 3C; chain copies: 2; hairpin
N-NTD [4] = target: T2, N-NTD; test: competition fluorescence anisotropy; probe N11; 10 mM Tris-HCl pH 7.4, 150 mM NaCl, 1 mM MgCl2; […]; BLI with 0.05% Tween-20; […]
N-NTD [5] = target: T2, N-NTD; test: fluorescence anisotropy; 10 mM Tris-HCl pH 7.4, 150 mM NaCl, 1 mM MgCl2; […]; BLI with 0.05% Tween-20; […]
N-NTD [6] = target: T2, N-NTD; test: DSF; 10 mM Tris-HCl pH 7.4, 150 mM NaCl, 1 mM MgCl2; […]; BLI with 0.05% Tween-20; […]
N protein full-length [7] = target: T1, N protein full-length; test: fluorescence anisotropy; Hill slope 0.91; 10 mM Tris-HCl pH 7.4, 150 mM NaCl, 1 mM MgCl2; FA with 0.1 mg/ml BSA at 25 C; BLI with 0.05% Tween-20; SEC at ambient temperature; details: protein: recombinant, tags: 6xHis-thioredoxin removed by HRV 3C, chain copies: 2, label: […], 5' biotin in BLI, hairpin, 2 bp stem
N-NTD [8] = target: T2, N-NTD; test: competition fluorescence anisotropy; 10 mM Tris-HCl pH 7.4, 150 mM NaCl, 1 mM MgCl2; […]; BLI with 0.05% Tween-20; […]
N-NTD [9] = target: N-NTD (SARS-CoV-2 (Wuhan-Hu-1), UniProt P0DTC9 46-174); test: competition fluorescence anisotropy; probe N11; 10 mM Tris-HCl pH 7.4, 150 mM NaCl, 1 mM MgCl2; FA with 0.1 mg/ml BSA at 25 C; BLI with 0.05% Tween-20; SEC at ambient temperature; details: protein: recombinant, tags: N-terminal 6xHis removed by HRV 3C

TCGGACATCGGATTGTCTGA (ssDNA) [A58-20] gave a Kd (N protein full-length [1]) of 0.0101 nM, a Kd (N-NTD [2]) of 101 nM and a Kd (N protein full-length [3]) of 78.2 nM. For the same binder, the Ki (N-NTD [4]) was 50.5 nM.

In the case of TCAGACATCGGATTGTCTGA (ssDNA) [A58-20_nwb1], the Kd (N-NTD [5]) is reported as 84.9 nM and the binding signal (N-NTD [6]) is reported as 4.5 C (Tm shift).

With CATCGGATTG (ssDNA) [A58-10] the Kd (N protein full-length [1]; label: […], 5' biotin in BLI, […], 2 bp stem) was 3.77 nM and the Kd (N protein full-length [7]) was 24.9 nM.

B1: A58 (A58-58) (ssDNA)
DNA: GCTGGATGTCACCGGATTGTCGGACATCGGATTGTCTGAGTCATATGACACATCCAGC
B1 gave a Ki (N-NTD [4]) of 9.92 nM.

In the case of UCGGACAUCGGAUUGUCUGA (ssRNA) [A58-20_RNA], the binding signal (N-NTD [6]) is reported as -0.5 C (Tm shift) and the Ki (N-NTD [8]) is reported as 90800 nM.

With TTTTTTTTTTTTTTT (ssDNA) [poly-dT15] the Ki (N-NTD [9]) was 4120 nM.

UUUUUUUUUUUUUUU (ssRNA) [poly-rU15] showed a Ki (N-NTD [9]) of 7800 nM.

In the case of TCGGACATCGGATTGTCCGA (ssDNA) [A58-20_nwb2], the Kd (N-NTD [5]) is reported as 87.9 nM and the binding signal (N-NTD [6]) is reported as 4.5 C (Tm shift).

In the case of UCAUGUUAUGGUUGA (structured_RNA) [SL9 RNA], the Ki (N-NTD [9]; stem-loop) is reported as 15400 nM.

Work on GUCCCUCAUGUGGGC (structured_RNA) [SL10 RNA] yielded a Ki (N-NTD [9]; stem-loop) of 38700 nM.

ATCGGATT (ssDNA) [A58-8]: no binding (N-NTD [4]).

With TCGGACATTTTTTTGTCTGA (ssDNA) [A58-20 TTTTTT] the binding signal (N-NTD [6]) was 0.5 C (Tm shift).

TCGGACATCGGATTGTCTGA (XNA, 2'-fluoro-dG at position 10 (loop G3)) [A58-20-2'FG3] was tested, and the Kd (N-NTD [5]) was 74 nM.

In the case of TCGGACATCGGATTGTCTGA (ssDNA, fluorescein-dT (i6-FAMK) at position 13 (loop T6)) [A58-20-iT6FAM], the Kd (N-NTD [5]) is reported as 74 nM.

With TCGGACATCGGATTGTCTGA (XNA, 2'-fluoro-dG at position 10 (loop G3); i6-FAMK at position 13 (loop T6)) [A58-20-2'FG3-iT6FAM] the Kd (N-NTD [5]) was 13.9 nM.
